Three molecules from patent publication US20200010567A1 (NEURIMMUNE, published 2020) can be followed below.

The target of experiment [1] is transthyrethin (UniProt P02766 21-147). The experiment can be described thus: indirect ELISA, coated protein. How it is done: (§1) 96-well microplates (Corning) were coated with different target proteins at a concentration of 1-10 μg/ml in coating buffer (15 mM Na₂CO₃, 35 mM NaHCO₃, pH 9.42). Non-specific binding sites were blocked for 1 h at RT with PBS/0.1% Tween®-20 containing 2% BSA (Sigma-Aldrich, Buchs, Switzerland). […] Binding was determined using donkey anti-human IgG Fcγ-specific antibody conjugated with HRP (Jackson ImmunoResearch Laboratories, Inc., West Grove, USA) followed by measurement of HRP activity in a standard colorimetric assay. Signals for target protein were calculated in fold increase above median.
For orientation: ELISA stands for enzyme-linked immunosorbent assay.

Experiment [2] deals with T1, full-length amyloid precursor protein (UniProt P05067 18-770, limits assumed).
T1 construct: also called flAPP
Put plainly: indirect ELISA, coated protein. How it is done: as §1

For experiment [3], the target named is T2, transactive response DNA binding protein 43 (UniProt Q13148 1-414, limits assumed).
T2 construct: also called TDP-43
The experiment can be described thus: indirect ELISA, coated protein. How it is done:
as §1

Experiment [4] has as its target Tau (UniProt P10636-8 1-441, limits assumed). The experiment can be described thus: indirect ELISA, coated protein. How it is done: as §1
Experiment [5] has as its target T3, (PA)15: H-C(PA)15-OH.
T3 construct: synthetic, not coupled to BSA; also called poly-PA DPR protein peptide
T3 peptide: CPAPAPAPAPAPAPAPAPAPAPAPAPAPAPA
The experiment can be described thus: indirect ELISA, coated peptide. How it is done:
(§2) In brief, dipeptide repeat proteins were synthesized and purified by Schafer-N(Copenhagen, Denmark): (GA)₁₅: H-CHHHHHH(GA)₁₅-OH; (GP)₁₅: H-C(GP)₁₅-OH; (GR)₁₅: H-C(GR)₁₅-OH; (PA)₁₅: H-C(PA)₁₅-OH; (PR)₁₅: H—C(PR)₁₅-OH. 96-well microplates (Corning Incorporated, Corning, USA) were coated with dipeptide repeat protein peptides at a concentration of either 5 μg/ml or 20 μg/ml in coating buffer (15 mM Na₂CO₃, 35 mM NaHCO₃, pH 9.42). Non-specific binding sites were blocked for 1 h at room temperature with PBS/0.1% Tween®-20 containing 2% BSA (Sigma-Aldrich, Buchs, Switzerland). Primary antibodies were diluted to the indicated concentrations and incubated for 1 h at room temperature, followed by incubation with a donkey anti-human IgG Fcγ-specific antibody conjugated with HRP (Jackson ImmunoResearch Laboratories, Inc., West Grove, USA). Binding was determined by measurement of HRP activity in a standard colorimetric assay. EC₅₀ values were estimated by non-linear regression using GraphPad Prism software (San Diego, USA). The binding specificity and EC₅₀ of human-derived antibodies for C9orf72 dipeptide repeat protein peptides (GA)₁₅, (GP)₁₅, (GR)₁₅, (PA)₁₅ and (PR)₁₅ were determined by indirect ELISA.

The target in experiment [6] is T4, (GP)15: H-C(GP)15-OH.
T4 construct: synthetic, not coupled to BSA; also called poly-GP DPR protein peptide
T4 peptide: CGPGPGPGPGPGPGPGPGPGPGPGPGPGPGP
The experiment can be described thus: indirect ELISA, coated peptide. How it is done: as §2

Experiment [7] addresses T5, (GR)15: H-C(GR)15-OH.
T5 construct: synthetic, not coupled to BSA; also called poly-GR DPR protein peptide
T5 peptide: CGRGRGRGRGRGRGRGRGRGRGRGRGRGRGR
The experiment can be described thus: indirect ELISA, coated peptide. How it is done: as §2

Experiment [8] has as its target T6, (PR)15: H-C(PR)15-OH.
T6 construct: synthetic, not coupled to BSA; also called poly-PR DPR protein peptide
T6 peptide: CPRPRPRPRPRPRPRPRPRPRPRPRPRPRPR
The experiment can be described thus: indirect ELISA, coated peptide. How it is done: as §2

Experiment [9] addresses T7, GA6: H-(GA)6HHHHHH-NH2.
T7 peptide: H-GAGAGAGAGAGAHHHHHH-NH2
Put plainly: indirect ELISA, coated His-tagged peptide. The source says: (§3) In brief, dipeptide repeat proteins were synthesized and purified by Schafer-N (Copenhagen, Denmark): GA₂₀: H-(GA)₂₀HHHHHH-NH₂; GA₁₀: H-(GA)₁₀HHHHHH-NH₂; GA₆: H-(GA)₆HHHHHH-NH₂; GA₅: H-(GA)₅HHHHHH-NH₂; GA₄: H-(GA)₄HHHHHH-NH₂; GA₃: H-(GA)₃HHHHHH-NH₂; GA₂: H-(GA)₂HHHHHH-NH₂; GP₂₀: H-(GP)₂₀HHHHHH-NH₂; GP₁₀: H-(GP)₁₀HHHHHH-NH₂; GP₆: H-(GP)₆HHHHHH-NH₂; GP₅: H-(GP)₅HHHHHH-NH₂; GP₄: H-(GP)₄HHHHHH-NH₂; GP₃: H-(GP)₃HHHHHH-NH₂; GP₂: H-(GP)₂HHHHHH-NH₂. GR₂₀: H-(GR)₂₀HHHHHH-NH₂; GR₁₀: H-(GR)₁₀HHHHHH-NH₂; GR₆: H-(GR)₆HHHHHH-NH₂; GR₅: H-(GR)₅HHHHHH-NH₂; GR₄: H-(GR)₄HHHHHH-NH₂; GR₃: H-(GR)₃HHHHHH-NH₂; GR₂: H-(GR)₂HHHHHH-NH₂; PA₂₀: H-(PA)₂₀HHHHHH-NH₂; PA₁₀: H-(PA)₁₀HHHHHH-NH₂; PA₆: H-(PA)₆HHHHHH-NH₂; PA₅: H-(PA)₅HHHHHH-NH₂; PA₄: H-(PA)₄HHHHHH-NH₂; PA₃: H-(PA)₃HHHHHH-NH₂; PA₂: H-(PA)₂HHHHHH-NH₂; PR₂₀: H-(PR)₂₀HHHHHH-NH₂; PR₁₀: H-(PR)₁₀HHHHHH-NH₂; PR₆: H-(PR)₆HHHHHH-NH₂; PR₅: H-(PR)₅HHHHHH-NH₂; PR₄: H-(PR)₄HHHHHH-NH₂; PR₃: H-(PR)₃HHHHHH-NH₂; PR₂: H-(PR)₂HHHHHH-NH₂. 96-well microplates (Corning Incorporated, Corning, USA) were coated with dipeptide repeat protein peptides at a concentration of 50 μg/ml in coating buffer (15 mM Na₂CO₃, 35 mM NaHCO₃, pH 9.42). Non-specific binding sites were blocked for 1 h at room temperature with PBS/0.1% Tween®-20 containing 2% BSA (Sigma-Aldrich, Buchs, Switzerland). Primary antibodies were diluted to the indicated concentrations and incubated 1 h at room temperature, followed by incubation with a donkey anti-human IgG Fcγ-specific antibody conjugated with HRP (Jackson ImmunoResearch Laboratories, Inc., West Grove, USA). Binding was determined by measurement of HRP activity in a standard colorimetric assay. EC₅₀ values were estimated by non-linear regression using GraphPad Prism software (San Diego, USA).

Experiment [10] deals with T8, GA20: H-(GA)20HHHHHH-NH2 (C-terminal amide).
T8 peptide: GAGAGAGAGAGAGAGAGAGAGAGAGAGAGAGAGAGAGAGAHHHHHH
The experiment can be described thus: indirect ELISA, coated His-tagged peptide.
Excerpt: as §3

Experiment [11] deals with T9, GA10: H-(GA)10HHHHHH-NH2 (C-terminal amide).
T9 peptide: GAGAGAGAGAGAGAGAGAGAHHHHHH
The experiment can be described thus: indirect ELISA, coated His-tagged peptide.
Excerpt: as §3

T2 sequence (Q13148 whole entry): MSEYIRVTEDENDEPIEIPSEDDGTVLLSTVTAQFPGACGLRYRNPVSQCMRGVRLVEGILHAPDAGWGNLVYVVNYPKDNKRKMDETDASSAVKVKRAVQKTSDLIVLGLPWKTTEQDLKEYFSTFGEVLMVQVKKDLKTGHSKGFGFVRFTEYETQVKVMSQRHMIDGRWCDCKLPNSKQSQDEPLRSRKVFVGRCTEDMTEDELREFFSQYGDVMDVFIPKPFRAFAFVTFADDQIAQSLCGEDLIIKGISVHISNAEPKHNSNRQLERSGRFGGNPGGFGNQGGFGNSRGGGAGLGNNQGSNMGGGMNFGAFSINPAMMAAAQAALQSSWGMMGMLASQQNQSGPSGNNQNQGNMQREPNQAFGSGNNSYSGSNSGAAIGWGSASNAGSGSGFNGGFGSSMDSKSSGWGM
T1 sequence (P05067 18-770 limits assumed): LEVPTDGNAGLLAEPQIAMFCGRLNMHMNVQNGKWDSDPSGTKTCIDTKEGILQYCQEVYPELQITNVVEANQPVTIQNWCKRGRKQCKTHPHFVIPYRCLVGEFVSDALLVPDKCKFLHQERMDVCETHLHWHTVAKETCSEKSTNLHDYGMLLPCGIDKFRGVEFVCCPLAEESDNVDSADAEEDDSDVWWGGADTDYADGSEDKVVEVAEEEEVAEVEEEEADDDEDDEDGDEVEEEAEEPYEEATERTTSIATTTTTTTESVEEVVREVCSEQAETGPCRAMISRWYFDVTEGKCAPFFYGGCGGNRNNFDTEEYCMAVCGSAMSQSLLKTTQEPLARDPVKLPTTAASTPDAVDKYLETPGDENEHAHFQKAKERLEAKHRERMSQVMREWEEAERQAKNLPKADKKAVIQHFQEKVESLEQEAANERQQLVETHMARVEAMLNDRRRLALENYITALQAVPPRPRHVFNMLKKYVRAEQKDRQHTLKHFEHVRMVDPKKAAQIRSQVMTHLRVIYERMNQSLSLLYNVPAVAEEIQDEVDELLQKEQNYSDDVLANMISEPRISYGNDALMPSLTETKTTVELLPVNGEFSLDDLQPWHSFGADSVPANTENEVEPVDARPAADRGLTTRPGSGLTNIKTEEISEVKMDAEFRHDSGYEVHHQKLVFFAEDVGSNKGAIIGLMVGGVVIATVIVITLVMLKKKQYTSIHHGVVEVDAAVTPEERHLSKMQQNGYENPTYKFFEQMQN
Sequence of Tau (P10636 other isoform, or with tags, fused parts or gaps limits assumed): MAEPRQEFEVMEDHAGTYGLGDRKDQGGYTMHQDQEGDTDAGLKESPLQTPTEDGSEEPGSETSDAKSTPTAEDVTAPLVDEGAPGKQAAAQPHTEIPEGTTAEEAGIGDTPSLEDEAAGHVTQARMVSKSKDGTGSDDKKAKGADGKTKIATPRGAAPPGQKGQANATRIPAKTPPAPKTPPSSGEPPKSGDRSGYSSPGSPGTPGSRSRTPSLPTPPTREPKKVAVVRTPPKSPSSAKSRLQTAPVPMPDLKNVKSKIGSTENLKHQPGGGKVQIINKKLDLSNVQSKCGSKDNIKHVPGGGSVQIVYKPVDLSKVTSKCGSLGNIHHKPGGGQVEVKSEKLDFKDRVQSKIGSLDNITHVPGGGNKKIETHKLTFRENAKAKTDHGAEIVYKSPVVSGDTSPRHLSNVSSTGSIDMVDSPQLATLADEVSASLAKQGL

B1: NI-308.18F7 (antibody, V domains shown)
VH: QVQLQESGPGLVKPSETLSVTCTVSGGSINDYYWNWIRQPAGKGLEWIGRIYASGTINYNPSLQSRVTMSIDTSKNQFSLDLISVSAADTAVYYCARWGQVVGDYYYGMDVWGQGTTVTVSS
VL: EIVLTQSPLSLSVTPGEPASISCKSSQSLQHTNGYNYLDWYLLKPGQSPQLLIFLTSNRASGVPDRFSGSGSGTNFTLKISRVEAEDVGVYYCMEGIQLWTFGQGTKLEIK
notes: Recombinant complete human IgG1, kappa
For B1, the binding result is “no binding (tested: 20 nM)” in [1]; “no binding (tested: 20 nM)” in experiment [2]; “no binding (tested: 20 nM)” in [3]; “no binding (tested: 20 nM)” in [4]; “no binding” in experiment [5]; “no binding” in experiment [6]. Also, the binding result in experiment [7] and in experiment [8] was “no binding” in each case. Further, the results for the EC50 in experiment [9], in experiment [10] and in [11] were over 200 nM, 0.83 nM and 0.78 nM, respectively.

B2: NI-308.5G2 (antibody, V domains shown)
VH: EVQLVQSGADLRNPGASVTVSCTASGYHFADNAINWLRQAPGQRLEWMGWINIYSGNTKYSQNFQGRVTFTRNTSASTAFMHLRSLRSEDTAVYFCARDPDSSGYYLPYFDYWGQGTLVTVSS
VL: DIQLTQSPDSLTLSLGERATINCKSSQSVFYNSNNKNYLAWYQQKPGQPPKLLMYWASTRESGVTDRFSGSGSGTDFTLTITNLQAEDVAVYYCQQFYSSPLTFGGGTKVEIK
notes: as for B1
On to B2, for which the binding result is “no binding (tested: 20 nM)” in [1]; “no binding (tested: 20 nM)” in experiment [2]; “no binding (tested: 20 nM)” in experiment [3]; “no binding (tested: 20 nM)” in experiment [4]; “no binding” in experiment [5]; “no binding” in experiment [7]. Besides, the binding result in [8] is “no binding”. In addition, the EC50 (in general, the concentration that produces a half-maximal response) in experiment [9] is over 200 nM; in experiment [10], 18.2 nM; in experiment [11] it was 5.7 nM.

B3: NI-308.45C2 (antibody, V domains shown)
VH: QLQLQESGPGLVKPSQILSLTCAISGDSVFSNSAAWNWIRQSPSRGLEWLGRTYYRSKWDNDYAPSVKSRISINPDTSKNQFSLQLNSVTPEDTAVYYCAREVAYCGGDCYSVSFDYWGQGTLVTVSS
VL: not shown
notes: as for B1
Turning to B3, the binding result in experiment [1] is on record as “no binding (tested: 20 nM)”; in [2], “no binding (tested: 20 nM)”; in experiment [3] it was “no binding (tested: 20 nM)”; in [4] it was “no binding (tested: 20 nM)”; in experiment [5], “no binding”; in [6] it was “no binding”. Also, the binding result in experiment [7] and in [8] was “no binding” throughout. Also, the EC50 in experiment [9] is over 200 nM; in [10] it was 9.6 nM; in experiment [11], 7.6 nM.
